Assay results from the supplement of paper PMC7125110.
Fewer inactive variants are shown than the library holds.

B1: glmS ribozyme (parent)
chain: AUAAAAGCGCCAGAACUACAGAAAUGUAGUUGACGAGGAGGAGGUUUAUCGAAUUUUCGGCGGAUGCCUCCAAA

Legend:
Details in all cases: with glucosamine-6-phosphate
glucosamine-6-phosphate [1] = variants of: B1; test: self-cleavage kobs at 40 uM GlcN6P; higher = faster cleavage; RNA array
How it was run: (§1)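 Glucosamine-6-phosphate in HEPES/KCl/Mg(OAc)2 buffer, at 40 μM to 10 mM, was flowed over barcoded ribozyme variants transcribed in situ by E. coli RNA polymerase on sequenced MiSeq chips. Tracking was through a hybridised Cy3 probe at 37 °C. kobs, kcat and KM came from exponential decay fits and weighted Michaelis–Menten fits of normalised per-tile medians.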

glucosamine-6-phosphate [2] = variants of: B1; test: self-cleavage kobs at 10000 uM GlcN6P; higher = faster cleavage; RNA array
How it was run: as §1

glucosamine-6-phosphate [3] = variants of: B1; test: self-cleavage kobs at 640 uM GlcN6P; higher = faster cleavage; RNA array
How it was run: as §1

glucosamine-6-phosphate [4] = variants of: B1; test: self-cleavage kobs at 2500 uM GlcN6P; higher = faster cleavage; RNA array
How it was run: as §1

glucosamine-6-phosphate [5] = variants of: B1; test: self-cleavage kobs at 160 uM GlcN6P; higher = faster cleavage; RNA array
How it was run: as §1

Variant	self-cleavage kobs at 40 uM GlcN6P (glucosamine-6-phosphate [1]) [s⁻¹]	self-cleavage kobs at 10000 uM GlcN6P (glucosamine-6-phosphate [2]) [s⁻¹]	self-cleavage kobs at 640 uM GlcN6P (glucosamine-6-phosphate [3]) [s⁻¹]	self-cleavage kobs at 2500 uM GlcN6P (glucosamine-6-phosphate [4]) [s⁻¹]	self-cleavage kobs at 160 uM GlcN6P (glucosamine-6-phosphate [5]) [s⁻¹]
AUAAAAGCCCCAGAACUACAGAAAUGUAGUUGACGAGGAGGAGGUUGAUCGAAUUUUCGGCGGAUGCCUCCAAA [G9C U47G]	< 1e-05	< 1e-05	–	–	–
AUAAAAGCACCACAACUACAGAAAUGUAGUUGACGAGGAGGAGGGUUAUCGAAUUUACGGCGGAUGCCUCCAAA [G9A G13C U45G U57A]	< 1e-05	< 1e-05	–	–	–
AUAAAAGCCCCAGAACUACAGAAAUGUAGUUGACGAGGAGGAGGUUUAUCGAAUUUACGGCGGAUGCCUCCAAA [G9C U57A]	< 1e-05	–	< 1e-05	< 1e-05	–
AUAAAAGCAGCAUAACUACAGAAAUGUAGUUGACGAGGAGGAGGUUUUUCUAAUUUUCGGCGGAUCCCUCCAAA [G9A C10G G13U A48U G51U G66C]	< 1e-05	–	–	–	–
AUAAAAGCACCAGAAGUACAGAAAUGUAGUUGACGAGGAGGAGGUUUAUCGAAUUUUCGGCGGAUGCCUCCAAA [G9A C16G]	< 1e-05	–	< 1e-05	< 1e-05	< 1e-05
AUAAAAGCACCAGAACUACAGAAAUGUAGUUGACGAGGAGGAGGUUUAUCGAAUUUUGGGCGGAUGCCUCCAAA [G9A C58G]	< 1e-05	–	< 1e-05	< 1e-05	< 1e-05
AUAAAAGCACCAGAACUACAGAAAUGUAGUUGACGAGGAGGAGGCUUAUCGAAUUUUCGGCGGAUGCCUCCAAA [G9A U45C]	< 1e-05	< 1e-05	–	–	< 1e-05
AUAAAAGCACCAGAACUACAGAAAUGUAGUUGAGGAGGAGGAGGUCUAUCGAAUUUUCGGUUGAUGCCUCCAAA [G9A C34G U46C C61U G62U]	< 1e-05	–	–	–	–
AUAAAAGCCCCAGAACUACAGAAAUGUAGUUGACGAGGAGGAGGUUUAUCGAAUUUUCGGCGGAUGCCUUCAAA [G9C C70U]	< 1e-05	< 1e-05	< 1e-05	< 1e-05	< 1e-05
AUAAAAGCCCCAGAACUACAGAAAUGUAGUUGACGAGGAGGAGGGUUAUCGAAUUUUCGGCGGAUGCCUCCAAA [G9C U45G]	< 1e-05	–	< 1e-05	< 1e-05	< 1e-05
AUAAAAGCCCCAGAACUACAGAAAUGUAGUUGACGAGGAGGAGGUUUAUCAUAUUUUCGGCGGAUGCCUGCAAA [G9C G51A A52U C70G]	< 1e-05	–	< 1e-05	–	–
AUAAAAGCACCAGAACUACAGAAAUGUAGUUGACUAGGAGGAGGUUUAUCGAAUUUUCGGCGGAUGCCUCCAAA [G9A G35U]	< 1e-05	–	< 1e-05	–	< 1e-05
AUAAAAGCCCCAUAACUACAGAAAUGUAGUUGACGAGGAGGAGGUUUAUCGAAUUUUCGGCGGAUGCCUCCAAA [G9C G13U]	< 1e-05	< 1e-05	< 1e-05	< 1e-05	< 1e-05
AUAAAAGCCCCAGAACUACAGAAAUGUAGUUGACGAGGAGGAGGUUUAUCGAAUUGUCGGCGGAUGCCUCCAAA [G9C U56G]	< 1e-05	< 1e-05	< 1e-05	< 1e-05	< 1e-05
AUAAAAGCCCCAGAACUACAGAAAUGUAGUUGACGAGGAGGAGGUUUAUCGAAUUUUCGGCGGAUACCUCCAAA [G9C G66A]	< 1e-05	< 1e-05	< 1e-05	–	–
AUAAAAGCCCCAGAACUACAGAAAUGUAGUUGACGAGGAGGAGGUUUAUCGAAAUUUCGGCGGAUGCCUCCAAA [G9C U54A]	< 1e-05	< 1e-05	–	–	< 1e-05
AUAAAAGCACCAGAACUACAGAAAUGUAGUUGACGAGGAGGAGGUUCAUCUAAUUUUCGGCGAAUGCCUCCAAA [G9A U47C G51U G63A]	< 1e-05	< 1e-05	–	< 1e-05	–
AUAAAAGCUCCUGAACUACAGAAAUGUAGUUGGCGAGGAUGAGGUUUAUCGAAUUUUCGGCGGAUGCCUCCAAA [G9U A12U A33G G40U]	< 1e-05	–	–	–	–
AUAAAAGCACCAGAACUACAGAAAUGUAGUUGACGAGGAGGAGGUUCAUCGAAUUUUCGGCGGAUGCCUCCAAA [G9A U47C]	< 1e-05	–	< 1e-05	< 1e-05	< 1e-05
AUAAAAGCUCCAGCACUACAGAAAUGUAGUUGACGAGGAGGAGGUUUAUCGCAUUUUCGGCGGAUGCCUCCAAA [G9U A14C A52C]	< 1e-05	< 1e-05	–	< 1e-05	–
AUAAAAGCACAAGAACUACAGAAAUGUAGUUGACGAGGAGGAGGUUUAUCGAAUUUUCGGCGGAUGCCUCCAAA [G9A C11A]	< 1e-05	–	–	–	< 1e-05
AUAAAAGCCCCAGAACUACAGAAAUGUAGUUGACGAGGAGCAGGUUUAUCGAAUUUUCGGCGGAUGCCUCCAAA [G9C G41C]	< 1e-05	< 1e-05	< 1e-05	< 1e-05	< 1e-05
AUAAAAGCACCAGAACUACAGAAAUGUAGUUGACGAGGACGAGGUUUAUCGAAUUUUCGGCGGAUGCCUCCAAA [G9A G40C]	< 1e-05	–	< 1e-05	–	< 1e-05
AUAAAAGCCCCAGAACUACAGAAAUGUAGUUGACGAGGAGGAUUUUUAUCGAAUUUUAGGCGGAUGCCUCAAAA [G9C G43U G44U C58A C71A]	< 1e-05	–	–	–	–
AUAAAAGCCCCAGAACUACAGAAAUGUAGUUGACGAGGAGGAAGUUUAUCGAAUUUUCGGCGGAUGCCUCCAAA [G9C G43A]	< 1e-05	< 1e-05	–	–	–
